The labels stand for the following.
B1: Cyclin-dependent kinase 4 inhibitor C (Homo sapiens), P42773 (parent)
chain: MAEPWGNELASAAARGDLEQLTSLLQNNVNVNAQNGFGRTALQVMKLGNPEIARRLLLRGANPDLKDRTGFAVIHDAARAGFLDTLQTLLEFQADVNIEDNEGNLPLHLAAKEGHLRVVEFLVKHTASNVGHRNHKGDTACDLARLYGRNEVVSLMQANGAGGATNLQ

In one assay the parent is B1. The note with it: with cdk6_human CDK6, Q00534.
Sequence of cdk6_human CDK6, Q00534 (Q00534 whole entry): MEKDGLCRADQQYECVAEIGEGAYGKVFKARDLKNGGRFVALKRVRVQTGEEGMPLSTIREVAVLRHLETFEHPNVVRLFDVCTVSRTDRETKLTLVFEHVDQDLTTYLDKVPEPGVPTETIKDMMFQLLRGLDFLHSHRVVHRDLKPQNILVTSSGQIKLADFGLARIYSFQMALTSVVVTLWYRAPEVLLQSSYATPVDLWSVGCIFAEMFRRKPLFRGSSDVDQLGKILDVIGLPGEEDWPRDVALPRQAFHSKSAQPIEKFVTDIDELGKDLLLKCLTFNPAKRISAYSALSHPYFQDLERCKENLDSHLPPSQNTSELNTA
As for R117Q, the “effect of a mutation on the interaction” value is “with no effect”.

Regarding T69A, the “effect of a mutation on the interaction” value is “with no effect”.

For R133Q, the “effect of a mutation on the interaction” value is recorded as “with no effect”.

For V31L, the “effect of a mutation on the interaction” value is given as “with no effect”.

The variants in another assay derive from B1. The note with it: with cdk4_human CDK4, P11802.
As for T69A, the “effect of a mutation on the interaction” value was “with no effect”.

For V31L, the “effect of a mutation on the interaction” value is “with no effect”.

Variants of B1 are the subject of the next assay. Particulars: with itf2_human TCF4, P15884.
Sequence of itf2_human TCF4, P15884 (P15884 whole entry): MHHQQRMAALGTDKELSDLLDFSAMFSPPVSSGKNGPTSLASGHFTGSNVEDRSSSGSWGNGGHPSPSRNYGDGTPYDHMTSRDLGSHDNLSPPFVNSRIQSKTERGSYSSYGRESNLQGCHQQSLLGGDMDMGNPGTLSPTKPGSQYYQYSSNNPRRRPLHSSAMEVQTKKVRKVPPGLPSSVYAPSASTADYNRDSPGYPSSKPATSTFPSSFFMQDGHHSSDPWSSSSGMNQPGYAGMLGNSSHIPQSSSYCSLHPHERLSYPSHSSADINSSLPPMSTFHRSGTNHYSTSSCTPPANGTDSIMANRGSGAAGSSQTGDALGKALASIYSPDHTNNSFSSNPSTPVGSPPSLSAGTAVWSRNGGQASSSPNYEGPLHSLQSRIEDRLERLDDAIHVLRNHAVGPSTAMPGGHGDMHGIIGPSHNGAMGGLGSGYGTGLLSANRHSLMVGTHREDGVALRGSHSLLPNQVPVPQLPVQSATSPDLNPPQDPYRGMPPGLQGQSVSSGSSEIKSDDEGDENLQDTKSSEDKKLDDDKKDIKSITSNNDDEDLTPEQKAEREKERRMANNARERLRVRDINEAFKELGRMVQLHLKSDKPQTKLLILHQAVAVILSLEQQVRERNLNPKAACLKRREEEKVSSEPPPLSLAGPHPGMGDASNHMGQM
Regarding T69A, the “effect of a mutation on the interaction” value is reported as “with no effect”.

Take V31L: the “effect of a mutation on the interaction” value is given as “disrupting interaction strength”.

The variants in another assay derive from B1. The note with it: with htf4_human TCF12, Q99081.
Sequence of htf4_human TCF12, Q99081 (Q99081 whole entry): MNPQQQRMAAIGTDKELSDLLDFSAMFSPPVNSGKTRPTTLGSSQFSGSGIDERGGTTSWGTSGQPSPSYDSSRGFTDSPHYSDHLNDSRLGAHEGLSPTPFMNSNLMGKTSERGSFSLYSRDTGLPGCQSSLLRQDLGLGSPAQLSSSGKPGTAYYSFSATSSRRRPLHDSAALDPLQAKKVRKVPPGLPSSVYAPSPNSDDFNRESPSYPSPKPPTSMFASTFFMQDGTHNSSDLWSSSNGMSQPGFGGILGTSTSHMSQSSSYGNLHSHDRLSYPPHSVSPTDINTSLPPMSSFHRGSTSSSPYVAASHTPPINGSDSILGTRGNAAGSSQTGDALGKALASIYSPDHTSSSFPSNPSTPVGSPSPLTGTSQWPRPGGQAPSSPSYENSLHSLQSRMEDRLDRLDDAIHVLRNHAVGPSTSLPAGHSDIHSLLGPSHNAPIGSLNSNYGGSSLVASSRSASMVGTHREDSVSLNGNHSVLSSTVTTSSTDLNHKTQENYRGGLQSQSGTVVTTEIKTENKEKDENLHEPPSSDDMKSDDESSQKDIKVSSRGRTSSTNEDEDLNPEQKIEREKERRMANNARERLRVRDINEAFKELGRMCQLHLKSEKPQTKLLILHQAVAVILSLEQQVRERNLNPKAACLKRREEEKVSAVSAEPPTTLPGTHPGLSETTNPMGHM
In the case of V31L, the “effect of a mutation on the interaction” value is “disrupting interaction strength”.

Variants of B1 are the subject of a further assay. Particulars: with nagk_human NAGK.
For the variant V31L, the “effect of a mutation on the interaction” value was “disrupting interaction strength”.

The variants in another assay derive from B1. The note with it: with sahh2_human AHCYL1, O43865.
Sequence of sahh2_human AHCYL1, O43865 (O43865 whole entry): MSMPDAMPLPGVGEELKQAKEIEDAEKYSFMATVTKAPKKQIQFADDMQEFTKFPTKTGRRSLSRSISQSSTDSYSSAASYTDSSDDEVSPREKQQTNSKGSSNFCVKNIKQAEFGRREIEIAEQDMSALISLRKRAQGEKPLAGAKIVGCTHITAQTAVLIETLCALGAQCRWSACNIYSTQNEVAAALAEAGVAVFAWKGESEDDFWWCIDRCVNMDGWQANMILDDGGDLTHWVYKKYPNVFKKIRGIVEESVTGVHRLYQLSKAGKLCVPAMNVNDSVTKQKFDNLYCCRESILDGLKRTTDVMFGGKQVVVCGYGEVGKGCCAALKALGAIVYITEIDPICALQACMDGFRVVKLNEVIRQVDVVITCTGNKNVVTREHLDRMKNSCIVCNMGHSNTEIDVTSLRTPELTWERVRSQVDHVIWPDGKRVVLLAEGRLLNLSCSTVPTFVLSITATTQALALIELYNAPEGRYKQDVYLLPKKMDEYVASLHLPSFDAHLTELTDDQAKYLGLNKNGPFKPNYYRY
As to V31L, the “effect of a mutation on the interaction” value is listed as “disrupting interaction strength”.

These data come from IntAct's records for PubMed 31515488.
